Measurements reported in patent publication WO2012003472A1 (dated 2012).
Each block holds one binder with its values, some of them ahead of it.

Assays:
[1] = target: human Notch1 displayed on the surfaces of cells (human, UniProt P46531 19-2555); assay: cell-based or functional assay
[2] = target: T1, recombinant human Notch 1/Fc fusion protein (rhNotch1-Fc) (human, UniProt P46531 19-526); assay: SPR (Biacore T100), antibody captured on anti-mouse IgG, rhNotch1-Fc as analyte, 25°C
T1 construct: Bought protein; also called rhNotchl-Fc; R&D Systems Cat. No. 3647-TK-050; not shown: Fc part

[3] = target: T2, human Notch3 displayed on the surfaces of cells (human, UniProt Q9UM47 40-2321); assay: electrochemiluminescence (Meso Scale Discovery) on CHO FlpIn cells
T2 construct: whole, on cells; also called human Notch3 on CHO FlpIn cells; Notch3-dependent reporter cells

[4] = target: T3, human Notch4 displayed on the surfaces of cells (human, UniProt Q99466 24-2003); assay: as above
T3 construct: whole, on cells; also called human Notch4 on CHO FlpIn cells
T3 sequence (Q99466 24-2003): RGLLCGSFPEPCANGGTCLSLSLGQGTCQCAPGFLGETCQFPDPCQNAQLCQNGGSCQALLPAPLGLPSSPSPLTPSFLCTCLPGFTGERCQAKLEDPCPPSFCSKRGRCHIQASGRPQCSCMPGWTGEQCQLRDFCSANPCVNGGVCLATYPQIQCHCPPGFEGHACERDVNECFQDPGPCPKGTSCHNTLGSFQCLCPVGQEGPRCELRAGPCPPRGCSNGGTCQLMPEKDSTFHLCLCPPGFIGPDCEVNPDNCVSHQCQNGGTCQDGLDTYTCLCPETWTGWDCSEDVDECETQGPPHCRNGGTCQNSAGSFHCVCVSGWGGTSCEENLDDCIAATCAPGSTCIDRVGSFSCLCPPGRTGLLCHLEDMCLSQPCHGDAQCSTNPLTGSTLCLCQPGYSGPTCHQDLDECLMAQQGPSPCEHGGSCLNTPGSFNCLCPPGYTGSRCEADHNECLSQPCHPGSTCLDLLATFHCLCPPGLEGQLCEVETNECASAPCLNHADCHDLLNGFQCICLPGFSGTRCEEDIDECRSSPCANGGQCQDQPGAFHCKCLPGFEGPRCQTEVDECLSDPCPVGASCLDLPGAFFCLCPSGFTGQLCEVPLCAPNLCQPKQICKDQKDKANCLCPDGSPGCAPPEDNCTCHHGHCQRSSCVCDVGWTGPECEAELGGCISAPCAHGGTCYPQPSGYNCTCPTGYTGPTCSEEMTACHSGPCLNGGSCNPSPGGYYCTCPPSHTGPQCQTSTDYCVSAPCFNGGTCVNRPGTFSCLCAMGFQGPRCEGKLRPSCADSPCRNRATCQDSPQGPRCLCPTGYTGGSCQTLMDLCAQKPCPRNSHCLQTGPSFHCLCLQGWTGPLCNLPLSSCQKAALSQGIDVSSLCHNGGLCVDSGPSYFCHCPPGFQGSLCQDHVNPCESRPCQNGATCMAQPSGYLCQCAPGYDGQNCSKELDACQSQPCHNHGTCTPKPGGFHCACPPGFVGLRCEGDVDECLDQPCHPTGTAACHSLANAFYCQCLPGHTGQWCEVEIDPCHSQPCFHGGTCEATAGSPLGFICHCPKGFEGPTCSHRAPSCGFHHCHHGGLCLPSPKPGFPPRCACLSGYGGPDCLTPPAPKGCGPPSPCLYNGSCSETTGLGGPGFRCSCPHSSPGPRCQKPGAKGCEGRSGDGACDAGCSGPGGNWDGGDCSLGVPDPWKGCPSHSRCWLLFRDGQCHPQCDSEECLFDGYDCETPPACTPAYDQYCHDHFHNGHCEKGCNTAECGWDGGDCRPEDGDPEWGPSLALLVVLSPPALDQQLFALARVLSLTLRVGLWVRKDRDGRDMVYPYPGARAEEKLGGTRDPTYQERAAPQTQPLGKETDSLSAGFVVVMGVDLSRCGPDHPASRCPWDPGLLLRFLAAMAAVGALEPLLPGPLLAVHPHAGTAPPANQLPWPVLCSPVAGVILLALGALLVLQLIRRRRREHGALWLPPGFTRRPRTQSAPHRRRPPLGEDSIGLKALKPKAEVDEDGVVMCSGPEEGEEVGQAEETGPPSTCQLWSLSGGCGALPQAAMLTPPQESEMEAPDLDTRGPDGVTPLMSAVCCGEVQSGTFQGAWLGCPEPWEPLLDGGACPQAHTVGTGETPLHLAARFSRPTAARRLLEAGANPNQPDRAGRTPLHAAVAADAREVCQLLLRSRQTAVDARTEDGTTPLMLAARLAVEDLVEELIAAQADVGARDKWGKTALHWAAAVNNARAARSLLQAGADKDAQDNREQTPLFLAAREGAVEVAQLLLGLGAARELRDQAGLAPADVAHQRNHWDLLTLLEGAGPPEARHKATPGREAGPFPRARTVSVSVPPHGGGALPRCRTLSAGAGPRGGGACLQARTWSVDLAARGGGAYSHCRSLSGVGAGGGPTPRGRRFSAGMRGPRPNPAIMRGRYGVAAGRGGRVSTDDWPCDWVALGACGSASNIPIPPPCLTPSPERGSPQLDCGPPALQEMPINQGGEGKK

[5] = target: T4, human Notch2 displayed on the surfaces of cells (human, UniProt Q04721 26-2471); assay: as above
T4 construct: whole, on cells; also called human Notch2 on CHO FlpIn cells; Notch2-dependent reporter cells

rhNotch3-Fc = target: T5, rhNotch3-Fc (human, UniProt Q9UM47 40-467); assay: BLI (Octet QK), Notch-Fc on anti-human-Fc sensors
T5 construct: Bought protein; also called human Notch3 protein; R&D Cat. No. 1559-NT-050; not shown: Fc part
T5 sequence (looked up): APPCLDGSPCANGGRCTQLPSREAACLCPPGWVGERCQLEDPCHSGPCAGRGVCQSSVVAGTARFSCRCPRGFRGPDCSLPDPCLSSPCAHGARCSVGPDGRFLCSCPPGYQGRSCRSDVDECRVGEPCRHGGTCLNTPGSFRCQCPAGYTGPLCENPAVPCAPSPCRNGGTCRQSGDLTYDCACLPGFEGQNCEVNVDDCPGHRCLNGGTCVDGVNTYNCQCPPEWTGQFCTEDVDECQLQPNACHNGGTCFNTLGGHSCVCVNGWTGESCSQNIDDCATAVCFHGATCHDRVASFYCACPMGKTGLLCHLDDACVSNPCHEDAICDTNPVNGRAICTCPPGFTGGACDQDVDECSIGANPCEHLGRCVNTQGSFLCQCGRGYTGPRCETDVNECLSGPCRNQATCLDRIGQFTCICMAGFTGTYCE

rhNotch2-Fc = target: T6, rhNotch2-Fc (human, UniProt Q04721 26-530); assay: BLI (Octet QK), Notch-Fc on anti-human-Fc sensors
T6 construct: Bought protein; also called human Notch2 protein; R&D Cat. No. 3735-NT-050; not shown: Fc part
T6 sequence (looked up): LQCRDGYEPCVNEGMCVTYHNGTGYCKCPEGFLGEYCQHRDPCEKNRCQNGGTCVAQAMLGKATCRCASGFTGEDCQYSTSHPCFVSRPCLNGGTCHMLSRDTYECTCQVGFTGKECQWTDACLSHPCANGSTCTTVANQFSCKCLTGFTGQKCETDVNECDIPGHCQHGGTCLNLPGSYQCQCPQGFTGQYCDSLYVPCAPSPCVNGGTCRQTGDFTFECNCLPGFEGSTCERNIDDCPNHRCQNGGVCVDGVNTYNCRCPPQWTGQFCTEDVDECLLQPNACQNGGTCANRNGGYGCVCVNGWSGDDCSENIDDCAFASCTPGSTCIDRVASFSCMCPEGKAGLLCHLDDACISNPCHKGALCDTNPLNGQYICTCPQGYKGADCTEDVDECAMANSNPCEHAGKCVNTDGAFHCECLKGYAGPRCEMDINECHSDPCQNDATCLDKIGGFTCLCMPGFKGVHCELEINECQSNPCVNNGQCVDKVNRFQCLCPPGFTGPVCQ

human Notch1 displayed on the surfaces of cells, sequence (P46531 19-2555): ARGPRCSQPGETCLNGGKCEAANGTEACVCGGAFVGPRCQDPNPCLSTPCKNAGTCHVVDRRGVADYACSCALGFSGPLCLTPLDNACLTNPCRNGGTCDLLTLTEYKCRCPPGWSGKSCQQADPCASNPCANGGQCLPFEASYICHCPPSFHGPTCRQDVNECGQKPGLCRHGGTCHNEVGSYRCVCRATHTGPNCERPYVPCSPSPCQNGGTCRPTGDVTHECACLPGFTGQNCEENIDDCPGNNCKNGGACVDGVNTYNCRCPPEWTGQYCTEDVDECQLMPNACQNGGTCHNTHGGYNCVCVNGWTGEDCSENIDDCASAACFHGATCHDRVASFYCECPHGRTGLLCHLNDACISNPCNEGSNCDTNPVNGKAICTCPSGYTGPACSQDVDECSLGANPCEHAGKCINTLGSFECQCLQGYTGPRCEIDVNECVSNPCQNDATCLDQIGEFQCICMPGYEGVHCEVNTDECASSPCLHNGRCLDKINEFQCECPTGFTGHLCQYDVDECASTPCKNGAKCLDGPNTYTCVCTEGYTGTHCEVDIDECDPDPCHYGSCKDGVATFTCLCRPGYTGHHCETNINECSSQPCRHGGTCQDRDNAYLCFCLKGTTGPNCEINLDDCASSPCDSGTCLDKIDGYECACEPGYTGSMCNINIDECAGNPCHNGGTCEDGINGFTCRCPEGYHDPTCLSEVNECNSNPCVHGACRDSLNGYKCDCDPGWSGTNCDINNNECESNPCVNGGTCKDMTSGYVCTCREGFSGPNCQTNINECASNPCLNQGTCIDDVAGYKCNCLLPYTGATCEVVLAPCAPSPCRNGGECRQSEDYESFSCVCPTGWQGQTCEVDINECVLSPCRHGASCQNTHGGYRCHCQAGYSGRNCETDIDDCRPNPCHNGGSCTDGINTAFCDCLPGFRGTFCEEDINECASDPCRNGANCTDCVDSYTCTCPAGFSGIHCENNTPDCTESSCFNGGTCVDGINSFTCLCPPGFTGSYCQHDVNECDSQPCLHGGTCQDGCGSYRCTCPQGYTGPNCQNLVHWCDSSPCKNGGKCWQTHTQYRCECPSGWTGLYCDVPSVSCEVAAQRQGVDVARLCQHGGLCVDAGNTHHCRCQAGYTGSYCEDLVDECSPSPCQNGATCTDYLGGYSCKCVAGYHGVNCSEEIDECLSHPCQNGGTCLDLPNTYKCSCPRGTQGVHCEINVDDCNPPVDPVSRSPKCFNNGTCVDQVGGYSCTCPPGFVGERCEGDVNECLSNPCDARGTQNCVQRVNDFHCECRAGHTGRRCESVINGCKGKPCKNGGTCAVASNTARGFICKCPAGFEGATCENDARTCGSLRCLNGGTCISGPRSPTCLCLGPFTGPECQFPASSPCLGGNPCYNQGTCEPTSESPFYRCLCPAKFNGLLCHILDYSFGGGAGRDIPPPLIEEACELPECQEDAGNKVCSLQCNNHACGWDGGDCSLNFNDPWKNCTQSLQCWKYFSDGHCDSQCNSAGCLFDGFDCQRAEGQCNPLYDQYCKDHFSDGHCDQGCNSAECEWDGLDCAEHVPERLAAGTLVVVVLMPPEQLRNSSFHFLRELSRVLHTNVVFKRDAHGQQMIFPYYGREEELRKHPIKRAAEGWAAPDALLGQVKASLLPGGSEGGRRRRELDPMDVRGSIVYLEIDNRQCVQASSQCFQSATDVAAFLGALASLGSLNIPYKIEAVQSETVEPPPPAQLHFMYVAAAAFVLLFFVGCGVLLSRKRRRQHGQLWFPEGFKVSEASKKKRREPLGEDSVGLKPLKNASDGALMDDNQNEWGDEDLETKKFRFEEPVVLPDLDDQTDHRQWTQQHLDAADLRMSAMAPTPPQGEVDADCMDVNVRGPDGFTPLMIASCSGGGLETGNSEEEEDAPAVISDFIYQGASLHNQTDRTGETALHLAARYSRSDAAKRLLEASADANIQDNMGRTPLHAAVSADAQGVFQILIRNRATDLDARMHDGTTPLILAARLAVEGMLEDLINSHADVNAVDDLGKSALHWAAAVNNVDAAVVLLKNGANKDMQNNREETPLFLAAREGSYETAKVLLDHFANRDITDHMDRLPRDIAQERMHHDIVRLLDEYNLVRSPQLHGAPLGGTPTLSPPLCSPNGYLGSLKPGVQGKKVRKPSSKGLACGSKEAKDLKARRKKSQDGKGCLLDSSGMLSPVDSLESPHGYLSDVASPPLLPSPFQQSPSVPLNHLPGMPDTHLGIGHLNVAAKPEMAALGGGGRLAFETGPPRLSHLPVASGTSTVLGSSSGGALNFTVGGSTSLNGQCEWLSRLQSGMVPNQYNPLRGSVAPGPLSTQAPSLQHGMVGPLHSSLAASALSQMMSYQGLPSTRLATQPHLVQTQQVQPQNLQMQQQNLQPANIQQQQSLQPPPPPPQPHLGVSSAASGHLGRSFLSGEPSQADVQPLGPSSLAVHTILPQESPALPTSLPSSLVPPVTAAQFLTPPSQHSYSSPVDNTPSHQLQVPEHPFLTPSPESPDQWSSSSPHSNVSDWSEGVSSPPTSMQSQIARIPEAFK

B3: antibody 2D11 (antibody, mouse IgG1, kappa, V domains shown)
VH: EVQLQQSGAELARPGASVKMSCKASGYTFTRYWMHWVKQRPGQGLEWIGAIYPGNSDTTYNQKFKGKAKLTAVTSASTAYMELSSLTNEDSAVYYCIYPYDYLDYWGQGTTLTVSS
VL: QIVLTQSPAIMSASPGEKVTMTCSASSSLSYMHWYQQKPGTSPKRWVYDTSKLASGVPARFSGSGSGTSYSLTISSMEAEDAATYYCHQRSSYPYTFGGGTKLEIKR
notes: Mouse monoclonal from hybridoma, IgG1 kappa
- Kd [2]: ≤ 10 nM

B4: Hu2E6-62 (antibody, human IgG1, kappa, V domains shown)
VH: EVQLVQSGAEVAKPGASVKMSCKASGYTFTSYWMHWVKQAPGQGLEWIGAVYPRNNDATYNQKFKGKATLTADTSTSTAYMELRSLRSDDTAVYYCLYFNYNFDYWGQGTLLTVSS
VL: EIVLTQSPATMSASPGERVTMSCRASSSVSYMHWYQQKPGQSPRLLIYDTSNRASGVPAHFSGSGSGTDYTLTISSMEPEDFATYYCQQWSSYPYTFGQGTKLEIKR
- EC50, Inhibition of Notch 1 Signaling, DLL1 (row printed 'DLI A') [1]: 0.1 nM
- EC50, Inhibition of Notch 1 Signaling, DLL4 (row printed 'DLI A') [1]: 0.02 nM
- EC50, Inhibition of Notch 1 Signaling, Jag 1 [1]: 0.9 nM
- EC50, Inhibition of Notch 1 Signaling, Jag 2 [1]: 0.5 nM

Continued, values first:

- EC50, Inhibition of Notch 1 Signaling, DLL1 (row printed 'DLI A') [1]: 0.2 nM
- EC50, Inhibition of Notch 1 Signaling, DLL4 (row printed 'DLI A') [1]: 0.1 nM
- EC50, Inhibition of Notch 1 Signaling, Jag 1 [1]: 0.4 nM
- EC50, Inhibition of Notch 1 Signaling, Jag 2 [1]: 0.1 nM
- Kd [2]: ≤ 10 nM
B1: antibody 2E6 (antibody, mouse IgG1, kappa, V domains shown)
VH: EVQLQQSGAELARPGASVKMSCKASGYTFTSYWMHWVKQRPGQGLEWIGAVYPRNNDTTYNQKFKGKAKLTAVTSASTAYMALSSLTNEDSAVYYCLYFNYNFDYWGQGTTLTVSS
VL: QIVLTQSPAIMSASPGEKVTMTCSASSSVSYMHWYQQKPGSSPRLLIYDTSNLASGVPVHFSGSGSGTSYSLTIIRMEAEDAATYYCQQWSSYPYTFGGGTKLEIKR
notes: Mouse monoclonal from hybridoma, IgG1 kappa; also called 2E06; mu2E6

- binding result [3]: no binding (tested: 5 μg/ml antibody)
- binding result [4]: no binding (tested: 5 μg/ml antibody)
- binding result [5]: no binding (tested: 5 μg/ml antibody)
- Kd [2]: ≤ 10 nM
- binding result (rhNotch3-Fc): no binding (tested: 50 μg/ml antibody)
- binding result (rhNotch2-Fc): no binding (tested: 50 μg/ml antibody)
B2: antibody 2A11 (antibody, mouse IgG2b, kappa, V domains shown)
VH: QVQLQQSGPELVKPGASVKISCKASGYAFSSSWMNWVKQRPGKGLEWIGRIYPGDGDTNYNGKFKGKATLTADKSSSTAYMQLSSLTSEDSAVYFCARSGSIYYGNHGDYFDYWGQGTTLTVSS
VL: B1 VL
notes: Mouse monoclonal from hybridoma, IgG2b kappa
